Measured values published in the supplement of paper PMC9170038.

Test system: MS2 coat protein
Assay: apparent KD of MS2 coat protein; designed switch direction (-1 OFF switch, 1 ON switch): 1; higher = weaker reporter binding
Outline: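 For each design, the apparent KD is the median over clusters of curves fitted to normalised cluster fluorescence. Clusters held RNA switches with common flanks, transcribed on Illumina chips by stalled E. coli RNA polymerase. These were titrated with SNAP-549-labelled MS2 coat protein, doubling from 0.7 or 1.5 nM to 3 µM, without input, with 200 uM small-molecule ligand, or with an oligonucleotide input.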

[1] = input ligand: microRNA oligo, concentration not stated
[2] = Eterna round: R95, input ligand: FMN 200 uM
[3] = Eterna round: R95, input ligand: microRNA oligo, concentration not stated
[4] = Eterna round: R95, input ligand: none

Sequence	apparent KD of MS2 coat protein (input ligand: FMN 200 uM) [nM]	apparent KD of MS2 coat protein [1] [nM]	apparent KD of MS2 coat protein (input ligand: none) [nM]	apparent KD of MS2 coat protein [2] [nM]	apparent KD of MS2 coat protein [3] [nM]	apparent KD of MS2 coat protein [4] [nM]
AUAUUUAAUGCAGGAUAUGAUUAACAUGAGGAUCACCCAUGUGGUGUUGUGAGUAAGGAGAGUGAUCAGAAGGGCAUUUUUUUU [JMF's solution 100] (Eterna round: R96, puzzle: Same State NG 2)	821	322	467			
AUGCUCGUGUGAGGAUAUGCCGCCGUUUCGGCUGCAGAAGGUGCUACGUUACAUGAGGAUCACCCAUGUCUCUGUUGUUUCGUG [salish99_SSNG1_r04_942] (Eterna round: R96, puzzle: Same State NG 1)		18.7				
AUUAAACAUGAGGAUCACCCAUGUCAACAAAGUCGAGGAUAUGGGCAAAUAAAAUAAGAACCAGAAGGCGAAUAUU [salish99_ss1_r3_080] (puzzle: Same State 1)				38.5	407	180
AUUAAACAUGAGGAUCACCCAUGUCAACAAAGUCGAGGAUAUGGGCAUAUUAUCUUCUUUCCAGAAGGCGAAUAAU [salish99_ss1_r3_089] (puzzle: Same State 1)				431	136	404
AUUAAACAUGAGGAUCACCCAUGUCAACUAAGUCGAGGAUAUGGGCAAAUAAAAUAAGAACCAGAAGGCGAAUAAU [salish99_ss1_r3_074] (puzzle: Same State 1)				55.9	347	260
AUUAAGAGCGUAGGAUAUGGGAAAGGAAGUGUACCAGAAGGACGAAUACAGCGUCCGGACAUGAGGAUCACCCAUGUAGGACGG [PowerStrip SSNG 1.18] (Eterna round: R96, puzzle: Same State NG 1)	10.4	23.9	56.2			
AUUACUAACAUAGGAUAUCAUGCGAAAAUUGCGUGAGAAGGGUGGACACUGUCUUUCUCGGAGUACAUGAGGAUCACCCAUGUG [SameState NG1 #68] (Eterna round: R96, puzzle: Same State NG 1)	564	138	147			
AUUAUUGAUGCAGGAUAUGAUUAACAUGAGGAUCACCCAUGUGGUGUUGUGAGUAAGGAGAGUGAUCAGAAGGGCAUUUUUUUU [JMF's solution 23] (Eterna round: R96, puzzle: Same State NG 2)	747	435	436			
AUUAUUUAUGCAGGAUAUGAUUAACAUGAGGAUCACCCAUGUGGUGUUGUGAGUAAGGAGAGUGAUCAGAAGGGCAUUUUUUUA [JMF's solution 56] (Eterna round: R96, puzzle: Same State NG 2)	476	410	302			
AUUAUUUUUGCAGGAUAUGAUUAACAUGAGGAUCACCCAUGUGGUGUUGUGAGUAAGGAGAGUGAUCAGAAGGGCAUUUUUUUU [JMF's solution 60] (Eterna round: R96, puzzle: Same State NG 2)	449	410	315			
AUUCGUUAGAUAGGAUAUCACCAUACAUGAGGAUCACCCAUGUUUACCACGCUGGUUUUUCAUACUGAGAAGGAUCUUGAUGAC [JR_SSNG2_Sub006] (Eterna round: R96, puzzle: Same State NG 2)	20.7	16.7	30			
AUUGCUGUCACAGGAUAUCAUGCGGAAAUCGCGUGAGAAGGGUGGACUCUGUCAUUCACGGAGGACAUGAGGAUCACCCAUGUC [SS NG10LRO18] (Eterna round: R96, puzzle: Same State NG 1)	508	29	62.4			
AUUGCUGUCACAGGAUAUCAUGCGGAAAUCGCGUGAGAAGGGUGGACUCUGUCAUUCACGGAGGACAUGAGGAUCACCCAUGUG [SS NG10LRO19] (Eterna round: R96, puzzle: Same State NG 1)	66.3	8.78	22.3			
AUUGCUUACGCAGGAUAUGAUGUGGAAACUGCGUCAGAAGGGUGAACAGUAUCGUUGCAAGAGGACAUGAGGAUCACCCAUGUC [SameState NG1 #98] (Eterna round: R96, puzzle: Same State NG 1)	27.9	20.6	31.4			
AUUUAACAAGCUUUUUGCUCGUCUUAUAAACAUGAGGAUCACCCAUGUAAUAGCGUGAGAGUAAUUAUAUAAAUAAU [JMF 86] (puzzle: Sensor for hsa-mir-208a)				16.4	43	15.4
AUUUAACAAGCUUUUUGCUCGUCUUAUAAACAUGAGGAUCACCCAUGUAAUAGCGUGAGAGUAAUUUUUUAAAUAAU [JMF 96] (puzzle: Sensor for hsa-mir-208a)				20.3	34.3	17
CAAGAAAACGCAGGAUAUACCCGGGCUACCCGGGUAGAAGGGUGACACAUGAGGAUCACCCAUGUACAUAGAAUUAGCUAUGGA [Soberaa] (Eterna round: R96, puzzle: Same State NG 1)	284	15.9	26.7			
CACAUCCAGGUAGGAUAUGAGGUGCCAUAGGGAAAAGCCUAUGGACAUGAGGAUCACCCAUGUCCUCAGAAGGGCCGGACGUGA [Ceerbearre] (Eterna round: R96, puzzle: Same State NG 2)	26.5	79.6	96.7			
CAGCACUAUCGAGAGGAUAUGCGGUGAUGGACAUGAGGAUCACCCAUGUUAGCGAUGGCAUCACGGCAGAAGGCUCUGCUGCUGC [Soteed Omei mod 38] (puzzle: Same State 2)					13.2	
CAGCGCUGUCGAGAGGAUAUGCGGUGAUAGACAUGAGGAUCACCCAUGUUAGCGAUAGCAUUACGGUAGAAGGCUCUACAGCUGC [Soteed - 12] (puzzle: Same State 2)				29	73.3	103
CAGCGCUGUCGAGAGGAUAUGCGGUGAUGGACAUGAGGAUCACCCAUGUUAGCGACAGCAUCACGGCAGAAGGCUCUACCCGCUG [Soteed Omei mod 44] (puzzle: Same State 2)					10.6	
CAGCGCUGUCGAGAGGAUAUGCGGUGAUGGACAUGAGGAUCACCCAUGUUAGCGAUAGUAUUACGGUAGAAGGCUCUACAGCUGC [Soteed - 11] (puzzle: Same State 2)					43.6	
CAGUGCUGUUGAGAGGAUAUGCGGCGACGGACAUGAGGAUCACCCAUGUUAGCGACAGCGUUGCGGCAGAAGGCUCUGCCCGCUA [Soteed Omei mod 51] (puzzle: Same State 2)					39.3	
CAUCGUUUGAUAGGAUAUCGCUAUACAUGAGGAUCACCCAUGUUUACCACGCUGGUUUUUCAUACCGAGAAGGAUUCUGAUGUU [salish99_SSNG02_r04_015] (Eterna round: R96, puzzle: Same State NG 2)	36	25.2	38.6			
CCAAAGUACAAUUUAGAUCUACAUGAGGAUCACCCAUGUACUGAGGAUAUCAGCUCGUUUAGAGCUGAGAAGGCAGAAUUAAUU [SSNG3/4-A3] (Eterna round: R96, puzzle: Same State NG 3)	135	111	224			
CCAAAUUGAAUCCACAUGAGGAUCACCCAUGUCCAACCGGUCUAGGAUAUCACAGCAAGCGCGUGUGAGAAGGAGAAAACAAGC [Eternabot solution 34] (Eterna round: R96, puzzle: Same State NG 3)	42.1	21	43.4			
CCAACGUACAAUUUAGAUCUACAUGAGGAUCACCCAUGUACGGAGGAUAUCAGCUCGAAUAGAGCUGAGAAGGCCGAAUUAAUU [SSNG3/2-A1] (Eterna round: R96, puzzle: Same State NG 3)		248				
CCACUCUGCGGAGGAUAUGGGCCUGCCCGGGAUAACGGGCCUAAUACAUGAGGAUCACCCAUGUCCCAGAAGGCCGCUAGAGCC [Xeusza] (Eterna round: R96, puzzle: Same State NG 2)	18.8	92.4	139			
CCCAUGAAUAGUCAGGAUAUACGAUUUUAUACAUGAGGAUCACCCAUGUUAAGACUCCUCAAUAAGUAGAAGGGACUAUUUAUAA [Tesla Same State 2] (puzzle: Same State 2)				154	144	103
